The values that follow come from the supplement of paper PMC10724198.

For the data set, the system named is Saccharomyces cerevisiae. Nature of the data set: protein stability index of tFT-peptide fusion (C-terminal peptide) (PSI (0-1 scale)); higher = more stable (slower turnover). Particulars: genetic background: wild type; temperature: 30 C.

± gives the standard deviation of the averaged measurements.
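Also: PSI is a weighted mean of sequencing reads over stability bins, variants kept only with over 10 reads, mCherry proximal and sfGFP distal, peptide attached via GGGS linker.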

WYIEYLNYTTEQ showed a protein stability index of 0.697 ± 0.0089.

Consider WYKIQILDPNVG, for which the protein stability index turned out to be 0.749 ± 0.011.

Regarding WYLRSFVVSTLQ, the protein stability index is 0.533 ± 0.065.

In the case of YARVIFGGNWFS, the protein stability index turned out to be 0.552 ± 0.02.

The sequence YASRVLCVGLVL had a protein stability index of 0.636 ± 0.094.

For YCGCSLSEMSWV, the protein stability index stood at 0.741 ± 0.037.

YCGPSAGREGGG came in with a protein stability index of 0.771 ± 0.081.

For YCGSVCRPYSYL, the protein stability index is 0.695 ± 0.057.

For YCLLCSFVGPPA, the protein stability index is 0.731 ± 0.19.

Turning to YCPPHRCEAECI, the protein stability index stood at 0.657 ± 0.06.

In turn, YCRGGGRAKREV returned a protein stability index of 0.693 ± 0.014.

YDDSSLLFSNNL: the protein stability index worked out at 0.702 ± 0.0078.

As for YDLGHYFSIPRL, the protein stability index came out at 0.747 ± 0.011.

Consider YDTGSRASWIAF, for which the protein stability index was 0.714 ± 0.067.

YDVGSKAVLTLE came in with a protein stability index of 0.566 ± 0.0074.

In turn, YEGVNLSWYRIR gave a protein stability index of 0.676 ± 0.045.

With YENFHTRFAVGV, the protein stability index was determined as 0.504 ± 0.037.

As to YEPNYKEKKTQY, the protein stability index amounted to 0.69 ± 0.017.

The sequence YFAQCLDFFSLV had a protein stability index of 0.663 ± 0.019.

YFCGRGSVLLVT: the protein stability index worked out at 0.56 ± 0.014.

YFGPSPTRPPVP registered a protein stability index of 0.7225 ± 0.0015.

For the sequence YFLPESKIGRSG, the protein stability index was determined as 0.705 ± 0.023.

YFPFPPPLLSPP yielded a protein stability index of 0.766 ± 0.02.

YGCVSPVAGFAN came in with a protein stability index of 0.7254 ± 0.0069.

The sequence YGGGGWRGVALG showed a protein stability index of 0.65 ± 0.043.

As to YGVFALFLSSLS, the protein stability index came to 0.576 ± 0.056.

YHDVRSLGPSRT displayed a protein stability index of 0.666 ± 0.04.

Consider YIKAPCMRQSGG, for which the protein stability index came to 0.704 ± 0.019.

YILPTPKAFRSF: the protein stability index is 0.738 ± 0.17.

Sequence YKNRKYNGKIRI showed a protein stability index of 0.585 ± 0.18.

YLCLPPALISRI yielded a protein stability index of 0.656 ± 0.029.

YLDTVALLSRVL had a protein stability index of 0.569 ± 0.027.

Regarding YLFPFLCFSPPP, the protein stability index stood at 0.702 ± 0.072.

YLGTETSLTSLK gave a protein stability index of 0.786 ± 0.088.

As for YLLKRSQSLLII, the protein stability index was found to be 0.5 ± 0.014.

On to YLPYRTCSWKYE, for which the protein stability index turned out to be 0.56 ± 0.022.

For YLYSCVCGVLSN, the protein stability index stood at 0.5472 ± 0.0049.

Regarding YNINIKKENITE, the protein stability index turned out to be 0.68 ± 0.025.

Sequence YNSTVVKKGRCP gave a protein stability index of 0.7024 ± 0.0028.

Take YPPLPVRPLVLL: the protein stability index worked out at 0.515 ± 0.0056.

Turning to YPPPPPPPPPRF, the protein stability index is 0.7367 ± 0.0056.

YPPRLPSILPFP showed a protein stability index of 0.696 ± 0.046.

The sequence YPSLPQIVLATV yielded a protein stability index of 0.5033 ± 0.004.

Sequence YQCPASSPVLSA had a protein stability index of 0.7191 ± 0.005.

The sequence YQEIIKRQTGNK had a protein stability index of 0.745 ± 0.012.

Sequence YQFAALRFTFPL gave a protein stability index of 0.647 ± 0.044.

YRDQAGTGSWRM: the protein stability index was determined as 0.692 ± 0.023.

On to YRGRGSDQYAGT, for which the protein stability index was 0.624 ± 0.058.

Consider YRHYVKLGPKPF, for which the protein stability index is 0.668 ± 0.024.

Take YRKGWRREVGGG: the protein stability index turned out to be 0.699 ± 0.011.

Consider YRLAPVSLTMSS, for which the protein stability index is 0.706 ± 0.045.

Sequence YRLDTFCPHFSN registered a protein stability index of 0.752 ± 0.13.

YRLRAFLSMTQQ gave a protein stability index of 0.616 ± 0.01.

YRRDVGAARVLP: the protein stability index was determined as 0.67 ± 0.021.

YRTSLSMANHLL registered a protein stability index of 0.611 ± 0.069.

Consider YSAPFRIPLSLR, for which the protein stability index amounted to 0.631 ± 0.034.

Sequence YSCDEDPVTVRG displayed a protein stability index of 0.699 ± 0.036.

The sequence YTPSGHKRRMYV yielded a protein stability index of 0.642 ± 0.064.

YTPSPHVRAPRH displayed a protein stability index of 0.737 ± 0.025.

YTPVKDNDVKVY had a protein stability index of 0.722 ± 0.077.

For YTRAGNDKIFWE, the protein stability index turned out to be 0.809 ± 0.0096.

For YTRGVENTDMAP, the protein stability index came to 0.768 ± 0.022.

Sequence YTYPINPLDQTR yielded a protein stability index of 0.7196 ± 0.0027.

In turn, YVCLATLSSFSF showed a protein stability index of 0.644 ± 0.048.

With YVCRCGCLVKSV, the protein stability index was found to be 0.656 ± 0.043.

As for YVEVLLFTSVGF, the protein stability index turned out to be 0.569 ± 0.07.

In turn, YVIAMVYGAPWS had a protein stability index of 0.60667 ± 0.00018.

In turn, YVKSIRRRDYIW registered a protein stability index of 0.694 ± 0.0046.

YWGGWWGGWEIG: the protein stability index was 0.689 ± 0.014.

As to YYIITRWPNTTR, the protein stability index amounted to 0.847 ± 0.2.

YYLQPTCLCFWE showed a protein stability index of 0.698 ± 0.0041.
